According to PMC8694150, “Characterization of NucPNP and NucV involved in the early steps of nucleocidin biosynthesis in Streptomyces calvus” (RSC Advances, 2021):

Key:
NucV = biological target: T1, NucV (Streptomyces calvus, UniProt A0A142C6V8); test: HPLC of AMP formation, Michaelis-Menten fit; assay type: biochemical; details: 10 mM MgCl2, 50 mM Tris-HCl, 150 mM NaCl, pH 7.5, room temperature, apparent
T1 construct: gene apt; N-terminal 6-His tag kept; expressed in E. coli BL21(DE3)
Description: HPLC of AMP formation, Michaelis-Menten fit on NucV

ScAPRT = biological target: T2, ScAPRT (Streptomyces calvus, UniProt A0A514K045); test: HPLC of AMP formation, Michaelis-Menten fit; assay type: biochemical; details: 10 mM MgCl2, 50 mM Tris-HCl, 150 mM NaCl, pH 7.5, room temperature, apparent
T2 construct: gene apt; N-terminal 6-His tag kept; expressed in E. coli BL21(DE3); housekeeping APRT, not NucV
Description: HPLC of AMP formation, Michaelis-Menten fit on ScAPRT

[1] = test system: T3, CSC[C@H]1O[C@@H](n2cnc3c(N)ncnc32)[C@H](O)[C@@H]1O; test: purified protein; assay type: biochemical, Streptomyces calvus; details: 10 mM phosphate, 50 mM Tris-HCl, 150 mM NaCl, pH 7.5, room temperature, apparent
T3 construct: expressed in E. coli SHuffle T7 Express lysY; amylose then Ni-NTA
Description: (§1) HPLC of adenine formation, Michaelis-Menten fit on MBP-NucPNP

[2] = test system: T4, Nc1ncnc2c1ncn2[C@@H]1O[C@H](CO)[C@@H](O)[C@H]1O; test: purified protein; assay type: biochemical, Streptomyces calvus; details: 10 mM phosphate, 50 mM Tris-HCl, 150 mM NaCl, pH 7.5, room temperature, apparent
T4 construct: expressed in E. coli SHuffle T7 Express lysY; amylose then Ni-NTA
Description: as §1

purified protein = substrate: Nc1ncnc2nc[nH]c12; test: purified protein; details: 500 μM PRPP, 10 mM MgCl2, 50 mM Tris-HCl, 150 mM NaCl, pH 7.5, room temperature, apparent
[3] = substrate: O=P(O)(O)OC[C@H]1O[C@H](OP(=O)(O)OP(=O)(O)O)[C@H](O)[C@@H]1O; test: HPLC of AMP formation, Michaelis-Menten fit; assay type: biochemical, Escherichia coli; details: 500 μM adenine, 10 mM MgCl2, 50 mM Tris-HCl, 150 mM NaCl, pH 7.5, room temperature, apparent

T2 sequence (A0A514K045 entry or part of it): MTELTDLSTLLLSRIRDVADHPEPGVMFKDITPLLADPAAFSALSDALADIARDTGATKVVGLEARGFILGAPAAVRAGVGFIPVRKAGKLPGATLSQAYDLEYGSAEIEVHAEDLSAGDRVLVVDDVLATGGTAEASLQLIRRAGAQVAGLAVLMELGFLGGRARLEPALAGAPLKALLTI
T1 sequence (A0A142C6V8 entry or part of it): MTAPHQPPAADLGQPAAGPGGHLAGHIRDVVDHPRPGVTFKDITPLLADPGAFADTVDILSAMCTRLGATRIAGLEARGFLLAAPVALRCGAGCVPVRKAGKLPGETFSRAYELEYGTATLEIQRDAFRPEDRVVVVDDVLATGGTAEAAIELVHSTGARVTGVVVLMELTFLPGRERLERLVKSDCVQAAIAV

**Q.** For O=P(O)(O)OC[C@H]1O[C@H](OP(=O)(O)OP(=O)(O)O)[C@H](O)[C@@H]1O [compound 5, 5-phospho-α-D-ribose-1-diphosphate], which Km (NucV; 500 μM adenine) is on record?
**A.** 21.4 ± 3 µM

**Q.** And the Km (ScAPRT; 500 μM adenine)?
**A.** 9.8 ± 2 µM

**Q.** How did the Km (NucV; 500 μM PRPP) turn out when Nc1ncnc2nc[nH]c12 [compound 3, adenine] was run?
**A.** 6.8 ± 1.4 µM

**Q.** What about the Km (ScAPRT; 500 μM PRPP) of the same molecule?
**A.** 2.8 ± 0.6 µM

**Q.** MBP-NucPNP (Streptomyces calvus) was tested. Which Km [1] did it give?
**A.** 43.5 ± 4.1 µM

**Q.** And the kcat [1]?
**A.** 0.15 ± 0.01 s⁻¹

**Q.** What about the kcat/Km [1] of the same molecule?
**A.** 3400 M⁻¹ s⁻¹

**Q.** What about the Km [2] of the same molecule?
**A.** 90.3 ± 8.2 µM

**Q.** And the kcat [2]?
**A.** 0.49 ± 0.02 s⁻¹

**Q.** What about the kcat/Km [2] of the same molecule?
**A.** 5500 M⁻¹ s⁻¹

B1: EcAPRT (Escherichia coli K-12) (protein)
chain: MTATAQQLEYLKNSIKSIQDYPKPGILFRDVTSLLEDPKAYALSIDLLVERYKNAGITKVVGTEARGFLFGAPVALGLGVGFVPVRKPGKLPRETISETYDLEYGTDQLEIHVDAIKPGDKVLVVDDLLATGGTIEATVKLIRRLGGEVADAAFIINLFDLGGEQRLEKQGITSYSLVPFPGH
notes: N-terminal 6-His tag kept; expressed in E. coli BL21(DE3)
**Q.** For B1, which Km (purified protein) is on record?
**A.** 9.6 ± 2.5 µM

**Q.** What about the kcat (purified protein) of the same molecule?
**A.** 27.3 ± 1.9 s⁻¹

**Q.** What about the Km [3] of the same molecule?
**A.** 46.4 ± 9.0 µM

**Q.** What about the kcat [3] of the same molecule?
**A.** 15.9 ± 1.3 s⁻¹
